The test system of the experiment is allergic airway inflammation (murine allergy model). Description: Therapeutic treatment of OVA/Alum-induced allergic airway inflammation. In kind it is in vivo, mice. The following applies: treated after exposure to OVA. As for the experimental part: To test the therapeutic effect of OVA encapsulated in PLG particles on airway inflammation, mice were treated intraperitoneally with OVA/Alum at a dose of 10 μg/mouse on day 0 and day 14. The mice were intravenously administered with OVA-PLG on days 28, and 42. Between days 56-58, the mice were treated three times with aerosolized OVA.
The animals were treated as described above except that on days 28 and 42, the mice were treated with either OVA encapsulated in PLG particles, or OVA coupled to PLG particles.
In the allergy model, coupled nanoparticles have a propensity to cause anaphylaxis and are not an effective therapy. […] Animals were exposed to OVA as an allergen, and were then treated with either a sham-PLG or TIMP particle, a PLG or TIMP particle with OVA, or no treatment.

B1: OVA-PLG surface coupled particles: PLGA particle with OVA coupled to the outside of the particle (conjugate, UniProt P01012 2-386, looked up)
Ovalbumin: GSIGAASMEFCFDVFKELKVHHANENIFYCPIAIMSALAMVYLGAKDSTRTQINKVVRFDKLPGFGDSIEAQCGTSVNVHSSLRDILNQITKPNDVYSFSLASRLYAEERYPILPEYLQCVKELYRGGLEPINFQTAADQARELINSWVESQTNGIIRNVLQPSSVDSQTAMVLVNAIVFKGLWEKAFKDEDTQAMPFRVTEQESKPVQMMYQIGLFRVASMASEKMKILELPFASGTMSMLVLLPDEVSGLEQLESIINFEKLTEWTSSNVMEERKIKVYLPRMKMEEKYNLTSVLMAMGITDVFSSSANLSGISSAESLKISQAVHAAHAEINEAGREVVGSAEAGVDAASVSEEFRADHPFLFCIKHIATNAVLFFGRCVSP
modifications: coupled to PLG particles
Regarding B1, the TH2 response entry is “fail to reduce the TH2 response”.

The record behind these values is patent US12533403B2, “Peptide conjugated particles” (NORTHWESTERN UNIVERSITY, priority 2013, dated 2026).
